*1 amine or outer side, *2 acyl side, *3 side chain or, on linkers, in order; H or OH if unused. Side-chain parts run from the residue outwards. [ ]: non-standard residue; d: D form. The star is where a group is joined. C20 diacid = O=C(O)CCCCCCCCCCCCCCCCCCC(=O)*; γGlu = O=C(O)[C@H](CCC(=O)[*:2])N[*:1]; AEEA = NCCOCCOCC(=O)O; Aib = CC(C)(N)C(=O)O
Assays:
[1] = target: human glucagon-like peptide 1 receptor (GLP-1 R) (human, UniProt P43220 24-463); assay: cell-based or functional assay
[2] = target: T1, human GLP-2 receptor (hGLP2-R) (human, UniProt O95838 1-553); assay: cell-based or functional assay
T1 sequence (looked up): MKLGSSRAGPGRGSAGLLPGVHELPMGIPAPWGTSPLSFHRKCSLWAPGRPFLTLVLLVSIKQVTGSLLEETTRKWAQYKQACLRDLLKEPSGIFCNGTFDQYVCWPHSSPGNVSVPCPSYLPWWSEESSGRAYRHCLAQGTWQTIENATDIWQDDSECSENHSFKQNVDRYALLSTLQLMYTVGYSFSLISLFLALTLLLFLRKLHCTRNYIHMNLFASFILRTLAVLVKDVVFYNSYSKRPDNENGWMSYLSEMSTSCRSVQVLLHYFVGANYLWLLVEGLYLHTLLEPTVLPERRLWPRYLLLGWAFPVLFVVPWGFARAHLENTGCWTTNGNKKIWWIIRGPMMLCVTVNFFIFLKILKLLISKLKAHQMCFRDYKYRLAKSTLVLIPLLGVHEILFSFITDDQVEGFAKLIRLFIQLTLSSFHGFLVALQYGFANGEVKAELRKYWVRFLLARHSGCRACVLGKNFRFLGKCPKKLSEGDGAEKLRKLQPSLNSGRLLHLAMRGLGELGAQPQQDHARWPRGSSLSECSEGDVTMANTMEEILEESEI

B1: Compound 46 (peptide)
peptide: H-H[Aib]EGTFTSELATILDEQAAK([AEEA-AEEA-γGlu-C20 diacid])DFIAWLIEHKITD-OH
SMILES: CC[C@H](C)[C@H](NC(=O)[C@H](Cc1ccccc1)NC(=O)[C@H](CC(=O)O)NC(=O)[C@H](CCCCNC(=O)COCCOCCNC(=O)COCCOCCNC(=O)CC[C@H](NC(=O)CCCCCCCCCCCCCCCCCCC(=O)O)C(=O)O)NC(=O)[C@H](C)NC(=O)[C@H](C)NC(=O)[C@H](CCC(N)=O)NC(=O)[C@H](CCC(=O)O)NC(=O)[C@H](CC(=O)O)NC(=O)[C@H](CC(C)C)NC(=O)[C@@H](NC(=O)[C@@H](NC(=O)[C@H](C)NC(=O)[C@H](CC(C)C)NC(=O)[C@H](CCC(=O)O)NC(=O)[C@H](CO)NC(=O)[C@@H](NC(=O)[C@H](Cc1ccccc1)NC(=O)[C@@H](NC(=O)CNC(=O)[C@H](CCC(=O)O)NC(=O)C(C)(C)NC(=O)[C@@H](N)Cc1c[nH]cn1)[C@@H](C)O)[C@@H](C)O)[C@@H](C)O)[C@@H](C)CC)C(=O)N[C@@H](C)C(=O)N[C@@H](Cc1c[nH]c2ccccc12)C(=O)N[C@@H](CC(C)C)C(=O)N[C@H](C(=O)N[C@@H](CCC(=O)O)C(=O)N[C@@H](Cc1c[nH]cn1)C(=O)N[C@@H](CCCCN)C(=O)N[C@H](C(=O)N[C@H](C(=O)N[C@@H](CC(=O)O)C(=O)O)[C@@H](C)O)[C@@H](C)CC)[C@@H](C)CC
- EC50 GLP-1 (nM); cAMP response [1]: 0.26 nM
- EC50 GLP-2 (nM); cAMP response [2]: 0.38 nM
